The values below are quoted from earlier work in paper PMC5979509.

The series has as its target Neuropilin-1 (Homo sapiens) (UniProt O14786). In words: radioligand binding.
Sequence of UniProt O14786 (O14786 22-923): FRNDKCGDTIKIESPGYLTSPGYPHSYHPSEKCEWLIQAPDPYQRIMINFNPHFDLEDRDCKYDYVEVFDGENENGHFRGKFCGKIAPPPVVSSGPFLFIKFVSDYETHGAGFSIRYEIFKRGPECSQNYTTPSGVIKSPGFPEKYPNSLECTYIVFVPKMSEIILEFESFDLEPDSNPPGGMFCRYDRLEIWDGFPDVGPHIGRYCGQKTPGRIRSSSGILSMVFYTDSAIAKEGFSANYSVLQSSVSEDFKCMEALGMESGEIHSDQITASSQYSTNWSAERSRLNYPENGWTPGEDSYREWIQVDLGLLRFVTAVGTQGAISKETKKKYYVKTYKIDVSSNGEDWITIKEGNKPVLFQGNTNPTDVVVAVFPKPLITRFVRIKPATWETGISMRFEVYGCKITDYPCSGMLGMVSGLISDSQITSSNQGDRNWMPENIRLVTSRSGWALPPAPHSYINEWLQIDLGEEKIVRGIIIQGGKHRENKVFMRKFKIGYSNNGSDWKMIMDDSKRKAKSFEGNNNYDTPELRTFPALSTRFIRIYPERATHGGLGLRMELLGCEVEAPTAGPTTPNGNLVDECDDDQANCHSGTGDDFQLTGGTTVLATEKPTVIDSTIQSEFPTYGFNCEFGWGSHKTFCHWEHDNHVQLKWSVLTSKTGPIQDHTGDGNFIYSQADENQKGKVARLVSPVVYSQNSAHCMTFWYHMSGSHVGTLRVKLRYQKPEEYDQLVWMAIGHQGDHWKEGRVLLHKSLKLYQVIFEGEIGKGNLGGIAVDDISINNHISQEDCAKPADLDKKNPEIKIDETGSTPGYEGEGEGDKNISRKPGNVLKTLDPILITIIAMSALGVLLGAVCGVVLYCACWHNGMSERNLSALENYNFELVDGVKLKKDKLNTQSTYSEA

As to VEGF165a (from UniProt P15692), the Kd (commonly the equilibrium constant for the complex coming apart) is < 3 nM.
